B1: Neuronal migration protein doublecortin (Mus musculus), O88809 (parent)
chain: MELDFGHFDERDKASRNMRGSRMNGLPSPTHSAHCSFYRTRTLQALSNEKKAKKVRFYRNGDRYFKGIVYAVSSDRFRSFDALLADLTRSLSDNINLPQGVRYIYTIDGSRKIGSMDELEEGESYVCSSDNFFKKVEYTKNVNPNWSVNVKTSANMKAPQSLASSNSAQARENKDFVRPKLVTIIRSGVKPRKAVRVLLNKKTAHSFEQVLTDITEAIKLETGVVKKLYTLDGKQVTCLHDFFGDDDVFIACGPEKFRYAQDDFSLDENECRVMKGNPSAAAGPKASPTPQKTSAKSPGPMRRSKSPADSGNDQDANGTSSSQLSTPKSKQSPISTPTSPGSLRKHKVDLYLPLSLDDSDSLGDSM
partner: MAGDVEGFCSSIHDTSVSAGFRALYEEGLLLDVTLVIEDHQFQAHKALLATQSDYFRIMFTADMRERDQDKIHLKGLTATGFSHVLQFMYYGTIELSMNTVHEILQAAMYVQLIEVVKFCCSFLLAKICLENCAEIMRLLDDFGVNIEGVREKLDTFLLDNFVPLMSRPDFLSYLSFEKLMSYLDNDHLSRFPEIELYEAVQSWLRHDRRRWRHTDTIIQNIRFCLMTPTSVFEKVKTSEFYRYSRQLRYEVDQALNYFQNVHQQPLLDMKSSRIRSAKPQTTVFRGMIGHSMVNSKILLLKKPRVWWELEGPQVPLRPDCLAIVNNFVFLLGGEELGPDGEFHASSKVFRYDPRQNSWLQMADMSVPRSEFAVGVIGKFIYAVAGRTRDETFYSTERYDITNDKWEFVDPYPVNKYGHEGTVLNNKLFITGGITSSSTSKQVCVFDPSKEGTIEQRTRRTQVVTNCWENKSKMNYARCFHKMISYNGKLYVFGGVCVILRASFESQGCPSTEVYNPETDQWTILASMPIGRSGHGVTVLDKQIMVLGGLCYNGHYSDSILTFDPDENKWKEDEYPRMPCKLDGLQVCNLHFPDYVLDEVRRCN
B2: Serine/threonine-protein kinase DCLK2 (Homo sapiens), Q8N568 (parent)
chain: MASTRSIELEHFEERDKRPRPGSRRGAPSSSGGSSSSGPKGNGLIPSPAHSAHCSFYRTRTLQALSSEKKAKKARFYRNGDRYFKGLVFAISSDRFRSFDALLIELTRSLSDNVNLPQGVRTIYTIDGSRKVTSLDELLEGESYVCASNEPFRKVDYTKNINPNWSVNIKGGTSRALAAASSVKSEVKESKDFIKPKLVTVIRSGVKPRKAVRILLNKKTAHSFEQVLTDITEAIKLDSGVVKRLCTLDGKQVTCLQDFFGDDDVFIACGPEKFRYAQDDFVLDHSECRVLKSSYSRSSAVKYSGSKSPGPSRRSKSPASVNGTPSSQLSTPKSTKSSSSSPTSPGSFRGLKQISAHGRSSSNVNGGPELDRCISPEGVNGNRCSESSTLLEKYKIGKVIGDGNFAVVKECIDRSTGKEFALKIIDKAKCCGKEHLIENEVSILRRVKHPNIIMLVEEMETATELFLVMELVKGGDLFDAITSSTKYTERDGSAMVYNLANALRYLHGLSIVHRDIKPENLLVCEYPDGTKSLKLGDFGLATVVEGPLYTVCGTPTYVAPEIIAETGYGLKVDIWAAGVITYILLCGFPPFRSENNLQEDLFDQILAGKLEFPAPYWDNITDSAKELISQMLQVNVEARCTAGQILSHPWVSDDASQENNMQAEVTGKLKQHFNNALPKQNSTTTGVSVIMNTALDKEGQIFCSKHCQDSGRPGMEPISPVPPSVEEIPVPGEAVPAPTPPESPTPHPPPAAPGGERAGTWRRHRD
partner: B1 partner
B3: Serine/threonine-protein kinase DCLK1 (Homo sapiens), O15075 (parent)
chain: MSFGRDMELEHFDERDKAQRYSRGSRVNGLPSPTHSAHCSFYRTRTLQTLSSEKKAKKVRFYRNGDRYFKGIVYAISPDRFRSFEALLADLTRTLSDNVNLPQGVRTIYTIDGLKKISSLDQLVEGESYVCGSIEPFKKLEYTKNVNPNWSVNVKTTSASRAVSSLATAKGSPSEVRENKDFIRPKLVTIIRSGVKPRKAVRILLNKKTAHSFEQVLTDITDAIKLDSGVVKRLYTLDGKQVMCLQDFFGDDDIFIACGPEKFRYQDDFLLDESECRVVKSTSYTKIASSSRRSTTKSPGPSRRSKSPASTSSVNGTPGSQLSTPRSGKSPSPSPTSPGSLRKQRSSQHGGSSTSLASTKVCSSMDENDGPGEEVSEEGFQIPATITERYKVGRTIGDGNFAVVKECVERSTAREYALKIIKKSKCRGKEHMIQNEVSILRRVKHPNIVLLIEEMDVPTELYLVMELVKGGDLFDAITSTNKYTERDASGMLYNLASAIKYLHSLNIVHRDIKPENLLVYEHQDGSKSLKLGDFGLATIVDGPLYTVCGTPTYVAPEIIAETGYGLKVDIWAAGVITYILLCGFPPFRGSGDDQEVLFDQILMGQVDFPSPYWDNVSDSAKELITMMLLVDVDQRFSAVQVLEHPWVNDDGLPENEHQLSVAGKIKKHFNTGPKPNSTAAGVSVIATTALDKERQVFRRRRNQDVRSRYKAQPAPPELNSESEDYSPSSSETVRSPNSPF
partner: B1 partner

Variants of: B1
Settings: with klh15_human KLHL15, Q96M94

effect of a mutation on the interaction | Variant
decreasing interaction | MELDFGHFDERDKASRNMRGSRMNGLPSPTHSAHCSFYRTRTLQALSNEKKAKKVRFYRNGDRYFKGIVYAVSSDRFRSFDALLADLTRSLSDNINLPQGVRYIYTIDGSRKIGSMDELEEGESYVCSSDNFFKKVEYTKNVNPNWSVNVKTSANMKAPQSLASSNSAQARENKDFVRPKLVTIIRSGVKPRKAVRVLLNKKTAHSFEQVLTDITEAIKLETGVVKKLYTLDGKQVTCLHDFFGDDDVFIACGPEKFRLAQDDFSLDENECRVMKGNPSAAAGPKASPTPQKTSAKSPGPMRRSKSPADSGNDQDANGTSSSQLSTPKSKQSPISTPTSPGSLRKHKVDLYLPLSLDDSDSLGDSM [Y259L]

Variants of: B2
Settings: with klh15_human KLHL15, Q96M94

effect of a mutation on the interaction | Variant
decreasing interaction | Y276L

Variants of: B3
Settings: with klh15_human KLHL15, Q96M94

effect of a mutation on the interaction | Variant
decreasing interaction | Y265L

— IntAct's records for PubMed 33199366
